This is an account of results in patent publication US20220332804A1 (CSL INNOVATION, published 2022).

Positions count from the first letter of the chain named.

Common to all, as to experiment: SPR, mAb captured, C2 mutant analyte;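 also: Anti-C2 mAbs captured on goat anti-human IgG Biacore CM5 chips, alanine or serine C2 surface mutants flowed over at 37 °C, double-referenced sensorgrams fitted to a 1:1 binding model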
In one assay the target is T1, human C2 N325A (human, UniProt P06681 21-752).
T1 sequence: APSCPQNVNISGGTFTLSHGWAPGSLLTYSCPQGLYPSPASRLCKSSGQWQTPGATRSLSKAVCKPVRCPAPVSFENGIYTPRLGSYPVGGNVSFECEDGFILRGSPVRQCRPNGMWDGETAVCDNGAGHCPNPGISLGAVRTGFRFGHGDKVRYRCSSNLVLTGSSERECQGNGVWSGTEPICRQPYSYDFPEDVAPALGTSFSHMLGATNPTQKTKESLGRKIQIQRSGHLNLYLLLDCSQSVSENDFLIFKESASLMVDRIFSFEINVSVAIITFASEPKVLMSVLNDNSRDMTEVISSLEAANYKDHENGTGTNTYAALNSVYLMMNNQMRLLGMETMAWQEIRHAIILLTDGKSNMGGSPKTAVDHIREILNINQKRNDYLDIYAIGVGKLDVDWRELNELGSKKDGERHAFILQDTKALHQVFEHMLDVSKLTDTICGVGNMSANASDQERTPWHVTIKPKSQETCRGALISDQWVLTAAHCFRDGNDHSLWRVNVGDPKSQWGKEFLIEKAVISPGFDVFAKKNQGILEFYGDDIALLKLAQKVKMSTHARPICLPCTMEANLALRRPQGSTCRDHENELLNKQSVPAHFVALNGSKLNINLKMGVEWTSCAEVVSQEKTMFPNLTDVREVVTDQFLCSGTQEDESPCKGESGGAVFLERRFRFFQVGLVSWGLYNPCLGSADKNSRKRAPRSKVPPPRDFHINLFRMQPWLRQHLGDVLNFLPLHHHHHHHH

A further assay addresses T2, human C2 M452A (human, UniProt P06681 21-752).
T2 sequence: T1 sequence with A305N, M432A

The next assay concerns the target T3, human C2 H451A (human, UniProt P06681 21-752).
T3 sequence: T1 sequence with A305N, H431A

In the next assay the target is T4, human C2 K457A (human, UniProt P06681 21-752).
T4 sequence: T1 sequence with A305N, K437A

B1: RF16-214 (antibody, V domains shown)
VH: EVQLLESGGGLVQPGGSLRLSCAASGFTFSWYQMMWVRQAPGKGLEWVSRIYPSGGGTAYADSVKGRFTISRDNSKNTLYLQMNSLRAEDTAVYYCARDAGYGDNWGQGTLVTVSS
VL: QSALTQPPSVSVSPGQTASITCSGDKLGEKYASWYQQKAGQSPVMVIYQDRKRPSGIPERFSGSNSGNTATLTISGTQAMDEADYYCQAWDTRAVVFGGGTKLTVLG
A word on the Kd: it is the equilibrium constant for the complex coming apart. The low end stands for higher affinity, the high end for lower affinity. Consider B1, for which the Kd in the assay with human C2 N325A was found to be 328 nM; in the assay with human C2 M452A, 21.3 nM; with human C2 H451A, 138 nM; in the assay with human C2 K457A, 41.8 nM.
